Test results from patent US20260193335A1 (ZOETIS SERVICES, published 2026).

What follows are binders tested against T1, Feline FcRn (complex of FcRn-α subunit and β-microglobulin, C-terminal His tag) (feline, UniProt A0ABI7ZNY9 23-296; Q5MGS7 21-118) (assay: SPR Biacore, FcRn on sensor, pH 6; pH 6).
T1 construct: treated here as one molecule
Description: As discussed in the above Example section, Feline FcRn was isolated, prepared and mutant Fc IgGs were assayed against feline FcRn according to Strietzelg et. al. Standard RACE PCR was used to amplify feline FcRn-α subunit and β-microglobulin. FcRn-α subunit and β-microglobulin were co-transfected into HEK 293 cells and the FcRn complex was purified by IMAC affinity purification via the c-terminal His tag. KD's were measured by Biacore 3000 or Biacore T200 (GE Healthcare, Pittsburgh, PA, USA) using a CM5 sensor chip.
FcRn was captured on the surface of the sensor using a modified SA capture method. 10 mM MES; 150 mM NaCl; 0.005% Tween20; 0.5 mg/mL BSA; pH6 was used as capture, method running buffer and titrations. 1×HBS-P, 0.5 mg/mL BSA; pH7.4 was also used for method running buffer and titrations. Fc mutant IgGs were flowed over receptor surfaces and affinity was determined using T200 evaluation software or Biacore Insight Evaluation software. Blank runs containing buffer only were subtracted out from all runs. Flow cells were regenerated using 50 mM Tris pH8 or pH9. Runs were performed at 15° C.

Kd [nM]	Binder
147	mAb6 anti-TGFβ antibody ZTS-310, wildtype (antibody, IgG1a, 'Feline IgG1a subclass B was used'; The listing names the entries heavy chain and light chain; also called mAb6 ID No. 1; ZTS-310 WT) heavy: QVLLVQSGAEVRRPGASVKIFCKASGYSFTSSWMNWLRQAPAQGFEWMGQIYPGDGDTNYNGKFKGRLTLTADTSTDTAYMELSSLRSADTAVYYCARHYDGSTDYWGHGTIVTVSSASTTAPSVFPLAPSCGTTSGATVALACLVLGYFPEPVTVSWNSGALTSGVHTFPAVLQASGLYSLSSMVTVPSSRWLSDTFTCNVAHPPSNTKVDKTVRKTDHPPGPKPCDCPKCPPPEMLGGPSIFIFPPKPKDTLSISRTPEVTCLVVDLGPDDSDVQITWFVDNTQVYTAKTSPREEQFNSTYRVVSVLPILHQDWLKGKEFKCKVNSKSLPSPIERTISKAKGQPHEPQVYVLPPAQEELSRNKVSVTCLIKSFHPPDIAVEWEITGQPEPENNYRTTPPQLDSDGTYFVYSKLSVDRSHWQRGNTYTCSVSHEALHSHHTQKSLTQSPGK light: AITMTQSPGSLAGSPGQQVTMNCRASENIYSNLAWYQQKPGQHPKLLIYAATNLADGVPDRFSGSGSGTDFTLTISNLQAEDVASYYCQHFWGTPYTFGGGTK

Each binder was assayed against Feline FcRn (complex of FcRn-α subunit and β-microglobulin, C-terminal His tag) (feline) (assay: SPR Biacore, biotin-FcRn on SA chip, pH 6).
Chain of Feline FcRn (complex of FcRn-α subunit and β-microglobulin, C-terminal His tag) (feline) (chain, as listed by the source, chain 1 of 2): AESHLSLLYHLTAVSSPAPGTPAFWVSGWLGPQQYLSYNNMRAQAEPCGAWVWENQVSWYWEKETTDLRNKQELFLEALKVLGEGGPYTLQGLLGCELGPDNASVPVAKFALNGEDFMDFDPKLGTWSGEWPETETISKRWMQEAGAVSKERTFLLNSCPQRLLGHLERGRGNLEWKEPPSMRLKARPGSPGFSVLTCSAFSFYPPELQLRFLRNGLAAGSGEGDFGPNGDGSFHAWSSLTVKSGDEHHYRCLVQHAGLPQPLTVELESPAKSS
Chain of Feline FcRn (complex of FcRn-α subunit and β-microglobulin, C-terminal His tag) (feline) (Q5MGS7 21-118, chain 2 of 2): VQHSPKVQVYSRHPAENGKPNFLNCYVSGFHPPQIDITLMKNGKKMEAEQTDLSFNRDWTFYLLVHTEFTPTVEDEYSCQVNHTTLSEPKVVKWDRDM

Kd [nM]	Binder
25.5	mAb4 (felinized anti-IL31 antibody ZTS-5864) S428H, feline IgG1a (antibody, part only; not given: light constant region, not shown: another chain or arm of the molecule) heavy: DVQLVESGGDLVKPGGSLRLTCVASGFTFSDYAMSWVRQAPGKGLQWVAGIDSVGSGTSYADSVKGRFTISRDNAKNTLYLQMNSLKTEDTATYYCASGFPGSFEHWGQGTLVTVSSASTTAPSVFPLAPSCGTTSGATVALACLVLGYFPEPVTVSWNSGALTSGVHTFPAVLQASGLYSLSSMVTVPSSRWLSDTFTCNVAHPPSNTKVDKTVRKTDHPPGPKPCDCPKCPPPEMLGGPSIFIFPPKPKDTLSISRTPEVTCLVVDLGPDDSDVQITWFVDNTQVYTAKTSPREEQFNSTYRVVSVLPILHQDWLKGKEFKCKVNSKSLPSPIERTISKAKGQPHEPQVYVLPPAQEELSRNKVSVTCLIKSFHPPDIAVEWEITGQPEPENNYRTTPPQLDSDGTYFVYSKLSVDRSHWQRGNTYTCSVHHEALHSHHTQKSLTQSPGK VL: QSVLTQPSSVSGTLGQRITISCTGSSSNIGSGYVGWYQQVPGMGPKTVIYYNSDRPSGVPDRFSGSKSGSSGTLTITGLQAEDEADYYCSVYDRTFNAVFGGGT
21.4	mAb4 (felinized anti-IL31 antibody ZTS-5864) S428K, feline IgG1a (antibody, part only; not given: light constant region, not shown: another chain or arm of the molecule) heavy: DVQLVESGGDLVKPGGSLRLTCVASGFTFSDYAMSWVRQAPGKGLQWVAGIDSVGSGTSYADSVKGRFTISRDNAKNTLYLQMNSLKTEDTATYYCASGFPGSFEHWGQGTLVTVSSASTTAPSVFPLAPSCGTTSGATVALACLVLGYFPEPVTVSWNSGALTSGVHTFPAVLQASGLYSLSSMVTVPSSRWLSDTFTCNVAHPPSNTKVDKTVRKTDHPPGPKPCDCPKCPPPEMLGGPSIFIFPPKPKDTLSISRTPEVTCLVVDLGPDDSDVQITWFVDNTQVYTAKTSPREEQFNSTYRVVSVLPILHQDWLKGKEFKCKVNSKSLPSPIERTISKAKGQPHEPQVYVLPPAQEELSRNKVSVTCLIKSFHPPDIAVEWEITGQPEPENNYRTTPPQLDSDGTYFVYSKLSVDRSHWQRGNTYTCSVKHEALHSHHTQKSLTQSPGK VL: QSVLTQPSSVSGTLGQRITISCTGSSSNIGSGYVGWYQQVPGMGPKTVIYYNSDRPSGVPDRFSGSKSGSSGTLTITGLQAEDEADYYCSVYDRTFNAVFGGGT
18.6	mAb5 (felinized anti-IL31 antibody) S428M and S434L, feline IgG1a (antibody, part only; not given: variable domains of mAb5, not shown: another chain or arm of the molecule; small tags and cut ends) constant: ASTTAPSVFPLAPSCGTTSGATVALACLVLGYFPEPVTVSWNSGALTSGVHTFPAVLQASGLYSLSSMVTVPSSRWLSDTFTCNVAHPPSNTKVDKTVRKTDHPPGPKPCDCPKCPPPEMLGGPSIFIFPPKPKDTLSISRTPEVTCLVVDLGPDDSDVQITWFVDNTQVYTAKTSPREEQFNSTYRVVSVLPILHQDWLKGKEFKCKVNSKSLPSPIERTISKAKGQPHEPQVYVLPPAQEELSRNKVSVTCLIKSFHPPDIAVEWEITGQPEPENNYRTTPPQLDSDGTYFVYSKLSVDRSHWQRGNTYTCSVMHEALHLHHTQKSLTQSPGK
33.2	mAb5 (felinized anti-IL31 antibody) S428M and S434P, feline IgG1a (antibody, part only; not given: variable domains of mAb5, not shown: another chain or arm of the molecule; small tags and cut ends) constant: ASTTAPSVFPLAPSCGTTSGATVALACLVLGYFPEPVTVSWNSGALTSGVHTFPAVLQASGLYSLSSMVTVPSSRWLSDTFTCNVAHPPSNTKVDKTVRKTDHPPGPKPCDCPKCPPPEMLGGPSIFIFPPKPKDTLSISRTPEVTCLVVDLGPDDSDVQITWFVDNTQVYTAKTSPREEQFNSTYRVVSVLPILHQDWLKGKEFKCKVNSKSLPSPIERTISKAKGQPHEPQVYVLPPAQEELSRNKVSVTCLIKSFHPPDIAVEWEITGQPEPENNYRTTPPQLDSDGTYFVYSKLSVDRSHWQRGNTYTCSVMHEALHPHHTQKSLTQSPGK

The remaining lines, values behind:

Binder	Kd [nM]
mAb4 (felinized anti-IL31 antibody ZTS-5864) S428E, feline IgG1a (antibody, part only; not given: light constant region, not shown: another chain or arm of the molecule) heavy: DVQLVESGGDLVKPGGSLRLTCVASGFTFSDYAMSWVRQAPGKGLQWVAGIDSVGSGTSYADSVKGRFTISRDNAKNTLYLQMNSLKTEDTATYYCASGFPGSFEHWGQGTLVTVSSASTTAPSVFPLAPSCGTTSGATVALACLVLGYFPEPVTVSWNSGALTSGVHTFPAVLQASGLYSLSSMVTVPSSRWLSDTFTCNVAHPPSNTKVDKTVRKTDHPPGPKPCDCPKCPPPEMLGGPSIFIFPPKPKDTLSISRTPEVTCLVVDLGPDDSDVQITWFVDNTQVYTAKTSPREEQFNSTYRVVSVLPILHQDWLKGKEFKCKVNSKSLPSPIERTISKAKGQPHEPQVYVLPPAQEELSRNKVSVTCLIKSFHPPDIAVEWEITGQPEPENNYRTTPPQLDSDGTYFVYSKLSVDRSHWQRGNTYTCSVEHEALHSHHTQKSLTQSPGK VL: QSVLTQPSSVSGTLGQRITISCTGSSSNIGSGYVGWYQQVPGMGPKTVIYYNSDRPSGVPDRFSGSKSGSSGTLTITGLQAEDEADYYCSVYDRTFNAVFGGGT	37.9
mAb4 (felinized anti-IL31 antibody ZTS-5864) S428F, feline IgG1a (antibody, part only; not given: light constant region, not shown: another chain or arm of the molecule) heavy: DVQLVESGGDLVKPGGSLRLTCVASGFTFSDYAMSWVRQAPGKGLQWVAGIDSVGSGTSYADSVKGRFTISRDNAKNTLYLQMNSLKTEDTATYYCASGFPGSFEHWGQGTLVTVSSASTTAPSVFPLAPSCGTTSGATVALACLVLGYFPEPVTVSWNSGALTSGVHTFPAVLQASGLYSLSSMVTVPSSRWLSDTFTCNVAHPPSNTKVDKTVRKTDHPPGPKPCDCPKCPPPEMLGGPSIFIFPPKPKDTLSISRTPEVTCLVVDLGPDDSDVQITWFVDNTQVYTAKTSPREEQFNSTYRVVSVLPILHQDWLKGKEFKCKVNSKSLPSPIERTISKAKGQPHEPQVYVLPPAQEELSRNKVSVTCLIKSFHPPDIAVEWEITGQPEPENNYRTTPPQLDSDGTYFVYSKLSVDRSHWQRGNTYTCSVFHEALHSHHTQKSLTQSPGK VL: QSVLTQPSSVSGTLGQRITISCTGSSSNIGSGYVGWYQQVPGMGPKTVIYYNSDRPSGVPDRFSGSKSGSSGTLTITGLQAEDEADYYCSVYDRTFNAVFGGGT	29.7
mAb4 (felinized anti-IL31 antibody ZTS-5864) S428M, feline IgG1a (antibody, part only; not given: light constant region, not shown: another chain or arm of the molecule) heavy: DVQLVESGGDLVKPGGSLRLTCVASGFTFSDYAMSWVRQAPGKGLQWVAGIDSVGSGTSYADSVKGRFTISRDNAKNTLYLQMNSLKTEDTATYYCASGFPGSFEHWGQGTLVTVSSASTTAPSVFPLAPSCGTTSGATVALACLVLGYFPEPVTVSWNSGALTSGVHTFPAVLQASGLYSLSSMVTVPSSRWLSDTFTCNVAHPPSNTKVDKTVRKTDHPPGPKPCDCPKCPPPEMLGGPSIFIFPPKPKDTLSISRTPEVTCLVVDLGPDDSDVQITWFVDNTQVYTAKTSPREEQFNSTYRVVSVLPILHQDWLKGKEFKCKVNSKSLPSPIERTISKAKGQPHEPQVYVLPPAQEELSRNKVSVTCLIKSFHPPDIAVEWEITGQPEPENNYRTTPPQLDSDGTYFVYSKLSVDRSHWQRGNTYTCSVMHEALHSHHTQKSLTQSPGK VL: QSVLTQPSSVSGTLGQRITISCTGSSSNIGSGYVGWYQQVPGMGPKTVIYYNSDRPSGVPDRFSGSKSGSSGTLTITGLQAEDEADYYCSVYDRTFNAVFGGGT	18.8
mAb4 (felinized anti-IL31 antibody ZTS-5864) S428I, feline IgG1a (antibody, part only; not given: light constant region, not shown: another chain or arm of the molecule) heavy: DVQLVESGGDLVKPGGSLRLTCVASGFTFSDYAMSWVRQAPGKGLQWVAGIDSVGSGTSYADSVKGRFTISRDNAKNTLYLQMNSLKTEDTATYYCASGFPGSFEHWGQGTLVTVSSASTTAPSVFPLAPSCGTTSGATVALACLVLGYFPEPVTVSWNSGALTSGVHTFPAVLQASGLYSLSSMVTVPSSRWLSDTFTCNVAHPPSNTKVDKTVRKTDHPPGPKPCDCPKCPPPEMLGGPSIFIFPPKPKDTLSISRTPEVTCLVVDLGPDDSDVQITWFVDNTQVYTAKTSPREEQFNSTYRVVSVLPILHQDWLKGKEFKCKVNSKSLPSPIERTISKAKGQPHEPQVYVLPPAQEELSRNKVSVTCLIKSFHPPDIAVEWEITGQPEPENNYRTTPPQLDSDGTYFVYSKLSVDRSHWQRGNTYTCSVIHEALHSHHTQKSLTQSPGK VL: QSVLTQPSSVSGTLGQRITISCTGSSSNIGSGYVGWYQQVPGMGPKTVIYYNSDRPSGVPDRFSGSKSGSSGTLTITGLQAEDEADYYCSVYDRTFNAVFGGGT	16.7
mAb4 (felinized anti-IL31 antibody ZTS-5864) S428N, feline IgG1a (antibody, part only; not given: light constant region, not shown: another chain or arm of the molecule) heavy: DVQLVESGGDLVKPGGSLRLTCVASGFTFSDYAMSWVRQAPGKGLQWVAGIDSVGSGTSYADSVKGRFTISRDNAKNTLYLQMNSLKTEDTATYYCASGFPGSFEHWGQGTLVTVSSASTTAPSVFPLAPSCGTTSGATVALACLVLGYFPEPVTVSWNSGALTSGVHTFPAVLQASGLYSLSSMVTVPSSRWLSDTFTCNVAHPPSNTKVDKTVRKTDHPPGPKPCDCPKCPPPEMLGGPSIFIFPPKPKDTLSISRTPEVTCLVVDLGPDDSDVQITWFVDNTQVYTAKTSPREEQFNSTYRVVSVLPILHQDWLKGKEFKCKVNSKSLPSPIERTISKAKGQPHEPQVYVLPPAQEELSRNKVSVTCLIKSFHPPDIAVEWEITGQPEPENNYRTTPPQLDSDGTYFVYSKLSVDRSHWQRGNTYTCSVNHEALHSHHTQKSLTQSPGK VL: QSVLTQPSSVSGTLGQRITISCTGSSSNIGSGYVGWYQQVPGMGPKTVIYYNSDRPSGVPDRFSGSKSGSSGTLTITGLQAEDEADYYCSVYDRTFNAVFGGGT	49
